Key:
[1] = target: R87A; test: flow cytometry on CHO-K1 transfectants, right sub-column, cell hatched (loss of binding)
[2] = target: W90A; test: as above
[3] = target: N88A; test: flow cytometry on CHO-K1 transfectants, right sub-column
[4] = target: H60A; test: as above
[5] = target: V30A; test: as above
[6] = target: G16A; test: as above
[7] = target: K38A; test: as above
[8] = target: R93A; test: as above
[9] = target: I46A; test: as above
[10] = target: K17A; test: as above
[11] = target: P8A; test: as above
[12] = target: F28A; test: as above
[13] = target: D43A; test: as above
[14] = target: P44A; test: as above
[15] = target: R10A; test: as above
[16] = target: V49A; test: as above
[17] = target: D32A; test: as above
[18] = target: Q41A; test: as above
[19] = target: R37A; test: as above
[20] = target: G89A; test: as above
[21] = target: K31A; test: as above
[22] = target: Macaca mulatta CD27 (mmCD27) (Macaca mulatta (rhesus) / Macaca fascicularis (cynomolgus)); test: flow cytometry MFI, CD8+ T cells in rhesus peripheral blood, n=4
[23] = target: N88A; test: flow cytometry on CHO-K1 transfectants, left sub-column
[24] = target: H36A; test: as above
[25] = target: H60A; test: as above
[26] = target: V30A; test: as above
[27] = target: G16A; test: as above
[28] = target: K38A; test: as above
[29] = target: R93A; test: as above
[30] = target: I46A; test: as above
[31] = target: K17A; test: as above
[32] = target: P8A; test: as above
[33] = target: F28A; test: as above
[34] = target: D43A; test: as above
[35] = target: W13A; test: as above
[36] = target: S63A; test: as above
[37] = target: P44A; test: as above
[38] = target: R10A; test: as above
[39] = target: Q15A; test: as above
[40] = target: V49A; test: as above
[41] = target: D32A; test: as above
[42] = target: Q41A; test: as above
[43] = target: R37A; test: as above
[44] = target: G89A; test: as above
[45] = target: Q91A; test: as above
[46] = target: E9A; test: as above
[47] = target: K31A; test: as above
[48] = target: Macaca mulatta CD27 (mmCD27) (Macaca mulatta (rhesus) / Macaca fascicularis (cynomolgus)); test: flow cytometry MFI, CD4+ T cells in rhesus peripheral blood, n=4
[49] = target: human CD27 (A59T) (human) (UniProt P26842); test: cell ELISA on CD27-transfected CHOK1 cells, n=2
[50] = target: Macaca mulatta CD27 (mmCD27) (Macaca mulatta (rhesus) / Macaca fascicularis (cynomolgus)); test: cell ELISA on CD27-transfected CHOK1 cells, n=2
[51] = target: human CD27 (human) (UniProt P26842); test: cell ELISA on CD27-transfected CHOK1 cells, n=2
[52] = target: human CD27 (human) (UniProt P26842); test: flow cytometry MFI, CD8+ T cells in human peripheral blood, n=4

Sequence of 1F5-hIgG1 (antibody) (VH): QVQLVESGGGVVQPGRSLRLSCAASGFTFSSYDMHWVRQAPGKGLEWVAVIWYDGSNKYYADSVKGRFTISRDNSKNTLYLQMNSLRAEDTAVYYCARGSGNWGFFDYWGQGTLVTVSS
Sequence of 1F5-hIgG1 (antibody) (VL): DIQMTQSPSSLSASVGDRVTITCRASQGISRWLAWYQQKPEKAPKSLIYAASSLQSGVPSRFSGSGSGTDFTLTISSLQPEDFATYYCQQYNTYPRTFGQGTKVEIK
Sequence of N88A (receptor chain, as listed by the source N88A N88A limits assumed): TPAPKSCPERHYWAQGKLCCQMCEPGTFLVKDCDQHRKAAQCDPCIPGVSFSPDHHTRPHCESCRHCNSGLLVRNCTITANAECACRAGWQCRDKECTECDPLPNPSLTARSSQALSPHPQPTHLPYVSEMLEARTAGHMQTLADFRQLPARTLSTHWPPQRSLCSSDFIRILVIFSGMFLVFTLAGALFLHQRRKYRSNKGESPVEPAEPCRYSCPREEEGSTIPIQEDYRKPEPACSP
Sequence of V49A (receptor chain, as listed by the source V49A V49A limits assumed): as the sequence (receptor chain, as listed by the source N88A N88A limits assumed) above, with V49A, A88N counted along it
Sequence of K31A (receptor chain, as listed by the source K31A K31A limits assumed): as the sequence (receptor chain, as listed by the source N88A N88A limits assumed) above, with K31A, A88N counted along it
Sequence of R93A (receptor chain, as listed by the source R93A R93A limits assumed): as the sequence (receptor chain, as listed by the source N88A N88A limits assumed) above, with A88N, R93A counted along it
Sequence of H60A (receptor chain, as listed by the source H60A H60A limits assumed): as the sequence (receptor chain, as listed by the source N88A N88A limits assumed) above, with H60A, A88N counted along it
Sequence of D32A (receptor chain, as listed by the source D32A D32A limits assumed): as the sequence (receptor chain, as listed by the source N88A N88A limits assumed) above, with D32A, A88N counted along it
Sequence of R37A (receptor chain, as listed by the source R37A R37A limits assumed): as the sequence (receptor chain, as listed by the source N88A N88A limits assumed) above, with R37A, A88N counted along it
Sequence of G16A (receptor chain, as listed by the source G16A G16A limits assumed): as the sequence (receptor chain, as listed by the source N88A N88A limits assumed) above, with G16A, A88N counted along it
Sequence of Q41A (receptor chain, as listed by the source Q41A Q41A limits assumed): as the sequence (receptor chain, as listed by the source N88A N88A limits assumed) above, with Q41A, A88N counted along it
Sequence of V30A (receptor chain, as listed by the source V30A V30A limits assumed): as the sequence (receptor chain, as listed by the source N88A N88A limits assumed) above, with V30A, A88N counted along it
Sequence of K38A (receptor chain, as listed by the source K38A K38A limits assumed): as the sequence (receptor chain, as listed by the source N88A N88A limits assumed) above, with K38A, A88N counted along it
Sequence of G89A (receptor chain, as listed by the source G89A G89A limits assumed): as the sequence (receptor chain, as listed by the source N88A N88A limits assumed) above, with A88N, G89A counted along it
Sequence of P44A (receptor chain, as listed by the source P44A P44A limits assumed): as the sequence (receptor chain, as listed by the source N88A N88A limits assumed) above, with P44A, A88N counted along it
Sequence of P8A (receptor chain, as listed by the source limits assumed): as the sequence (receptor chain, as listed by the source N88A N88A limits assumed) above, with P8A, A88N counted along it
Sequence of R10A (receptor chain, as listed by the source R10A R10A limits assumed): as the sequence (receptor chain, as listed by the source N88A N88A limits assumed) above, with R10A, A88N counted along it
Sequence of I46A (receptor chain, as listed by the source I46A I46A limits assumed): as the sequence (receptor chain, as listed by the source N88A N88A limits assumed) above, with I46A, A88N counted along it
Sequence of F28A (receptor chain, as listed by the source F28A F28A limits assumed): as the sequence (receptor chain, as listed by the source N88A N88A limits assumed) above, with F28A, A88N counted along it
Sequence of D43A (receptor chain, as listed by the source D43A D43A limits assumed): as the sequence (receptor chain, as listed by the source N88A N88A limits assumed) above, with D43A, A88N counted along it

## 1F5-hIgG1 (antibody)
[1]
  binding, WT hCD27 = 100 (GM FITC): 7.8%
[2]
  binding, WT hCD27 = 100 (GM FITC): 10%
[3]
  binding, WT hCD27 = 100 (GM FITC): 119%
[4]
  binding, WT hCD27 = 100 (GM FITC): 110%
[5]
  binding, WT hCD27 = 100 (GM FITC): 88.9%
[6]
  binding, WT hCD27 = 100 (GM FITC): 101%
[7]
  binding, WT hCD27 = 100 (GM FITC): 94.2%
[8]
  binding, WT hCD27 = 100 (GM FITC): 85.5%
[9]
  binding, WT hCD27 = 100 (GM FITC): 69.7%
[10]
  binding, WT hCD27 = 100 (GM FITC): 112%
[11]
  binding, WT hCD27 = 100 (GM FITC): 73.1%
[12]
  binding, WT hCD27 = 100 (GM FITC): 46.2%
[13]
  binding, WT hCD27 = 100 (GM FITC): 86.1%
[14]
  binding, WT hCD27 = 100 (GM FITC): 83.7%
[15]
  binding, WT hCD27 = 100 (GM FITC): 113%
[16]
  binding, WT hCD27 = 100 (GM FITC): 92.8%
[17]
  binding, WT hCD27 = 100 (GM FITC): 59.6%
[18]
  binding, WT hCD27 = 100 (GM FITC): 66.3%
[19]
  binding, WT hCD27 = 100 (GM FITC): 88%
[20]
  binding, WT hCD27 = 100 (GM FITC): 68.5%
[21]
  binding, WT hCD27 = 100 (GM FITC): 120%
[22]
  EC50: 1.92 nM
[23]
  binding, WT hCD27 = 100 (GM FITC): 153%
[24]
  binding, WT hCD27 = 100 (GM FITC): 116%
[25]
  binding, WT hCD27 = 100 (GM FITC): 176%
[26]
  binding, WT hCD27 = 100 (GM FITC): 171%
[27]
  binding, WT hCD27 = 100 (GM FITC): 96%
[28]
  binding, WT hCD27 = 100 (GM FITC): 96.5%
[29]
  binding, WT hCD27 = 100 (GM FITC): 120%
[30]
  binding, WT hCD27 = 100 (GM FITC): 128%
[31]
  binding, WT hCD27 = 100 (GM FITC): 95.1%
[32]
  binding, WT hCD27 = 100 (GM FITC): 82.5%
[33]
  binding, WT hCD27 = 100 (GM FITC): 113%
[34]
  binding, WT hCD27 = 100 (GM FITC): 202%
[35]
  binding, WT hCD27 = 100 (GM FITC): 89.5%
[36]
  binding, WT hCD27 = 100 (GM FITC): 144%
[37]
  binding, WT hCD27 = 100 (GM FITC): 150%
[38]
  binding, WT hCD27 = 100 (GM FITC): 105%
[39]
  binding, WT hCD27 = 100 (GM FITC): 99%
[40]
  binding, WT hCD27 = 100 (GM FITC): 143%
[41]
  binding, WT hCD27 = 100 (GM FITC): 115%
[42]
  binding, WT hCD27 = 100 (GM FITC): 104%
[43]
  binding, WT hCD27 = 100 (GM FITC): 109%
[44]
  binding, WT hCD27 = 100 (GM FITC): 103%
[45]
  binding, WT hCD27 = 100 (GM FITC): 156%
[46]
  binding, WT hCD27 = 100 (GM FITC): 95.4%
[47]
  binding, WT hCD27 = 100 (GM FITC): 205%
[48]
  EC50: 1.58 nM
[49]
  EC50: 0.326 nM
[50]
  EC50: 0.193 nM
[51]
  EC50: 0.325 nM
[52]
  EC50: 1.3 nM

— US20180086841A1
